In PMC8675206:

B1: 100bp blunt (dsDNA)
DNA 1: GCACAATCTTCTCGCGCAACGCGTCAGTGGGCTGATCATTAACTATCCGCTGGATGACCAGGATGCCATTGCTGTGGAAGCTGCCTGCACTAATGTTCCG
DNA 2: CGGAACATTAGTGCAGGCAGCTTCCACAGCAATGGCATCCTGGTCATCCAGCGGATAGTTAATGATCAGCCCACTGACGCGTTGCGCGAGAAGATTGTGC
B2: 25bp blunt (dsDNA)
DNA 1: AAGCTTGCATGCCTGCAGGTCGACC
DNA 2: GGTCGACCTGCAGGCATGCAAGCTT

Key:
[1] = target: DNA-PKcs;Ku70;Ku80 (Homo sapiens (HeLa cells);Homo sapiens …, UniProt P78527;P12956;P13010 1-4128;2-609;2-732, ||); experiment: pull-down
[2] = target: DNA-PKcs (Homo sapiens (HeLa cells), UniProt P78527 1-4128); experiment: HX-MS on bead-captured DNA
Chain of DNA-PKcs (P78527 whole entry): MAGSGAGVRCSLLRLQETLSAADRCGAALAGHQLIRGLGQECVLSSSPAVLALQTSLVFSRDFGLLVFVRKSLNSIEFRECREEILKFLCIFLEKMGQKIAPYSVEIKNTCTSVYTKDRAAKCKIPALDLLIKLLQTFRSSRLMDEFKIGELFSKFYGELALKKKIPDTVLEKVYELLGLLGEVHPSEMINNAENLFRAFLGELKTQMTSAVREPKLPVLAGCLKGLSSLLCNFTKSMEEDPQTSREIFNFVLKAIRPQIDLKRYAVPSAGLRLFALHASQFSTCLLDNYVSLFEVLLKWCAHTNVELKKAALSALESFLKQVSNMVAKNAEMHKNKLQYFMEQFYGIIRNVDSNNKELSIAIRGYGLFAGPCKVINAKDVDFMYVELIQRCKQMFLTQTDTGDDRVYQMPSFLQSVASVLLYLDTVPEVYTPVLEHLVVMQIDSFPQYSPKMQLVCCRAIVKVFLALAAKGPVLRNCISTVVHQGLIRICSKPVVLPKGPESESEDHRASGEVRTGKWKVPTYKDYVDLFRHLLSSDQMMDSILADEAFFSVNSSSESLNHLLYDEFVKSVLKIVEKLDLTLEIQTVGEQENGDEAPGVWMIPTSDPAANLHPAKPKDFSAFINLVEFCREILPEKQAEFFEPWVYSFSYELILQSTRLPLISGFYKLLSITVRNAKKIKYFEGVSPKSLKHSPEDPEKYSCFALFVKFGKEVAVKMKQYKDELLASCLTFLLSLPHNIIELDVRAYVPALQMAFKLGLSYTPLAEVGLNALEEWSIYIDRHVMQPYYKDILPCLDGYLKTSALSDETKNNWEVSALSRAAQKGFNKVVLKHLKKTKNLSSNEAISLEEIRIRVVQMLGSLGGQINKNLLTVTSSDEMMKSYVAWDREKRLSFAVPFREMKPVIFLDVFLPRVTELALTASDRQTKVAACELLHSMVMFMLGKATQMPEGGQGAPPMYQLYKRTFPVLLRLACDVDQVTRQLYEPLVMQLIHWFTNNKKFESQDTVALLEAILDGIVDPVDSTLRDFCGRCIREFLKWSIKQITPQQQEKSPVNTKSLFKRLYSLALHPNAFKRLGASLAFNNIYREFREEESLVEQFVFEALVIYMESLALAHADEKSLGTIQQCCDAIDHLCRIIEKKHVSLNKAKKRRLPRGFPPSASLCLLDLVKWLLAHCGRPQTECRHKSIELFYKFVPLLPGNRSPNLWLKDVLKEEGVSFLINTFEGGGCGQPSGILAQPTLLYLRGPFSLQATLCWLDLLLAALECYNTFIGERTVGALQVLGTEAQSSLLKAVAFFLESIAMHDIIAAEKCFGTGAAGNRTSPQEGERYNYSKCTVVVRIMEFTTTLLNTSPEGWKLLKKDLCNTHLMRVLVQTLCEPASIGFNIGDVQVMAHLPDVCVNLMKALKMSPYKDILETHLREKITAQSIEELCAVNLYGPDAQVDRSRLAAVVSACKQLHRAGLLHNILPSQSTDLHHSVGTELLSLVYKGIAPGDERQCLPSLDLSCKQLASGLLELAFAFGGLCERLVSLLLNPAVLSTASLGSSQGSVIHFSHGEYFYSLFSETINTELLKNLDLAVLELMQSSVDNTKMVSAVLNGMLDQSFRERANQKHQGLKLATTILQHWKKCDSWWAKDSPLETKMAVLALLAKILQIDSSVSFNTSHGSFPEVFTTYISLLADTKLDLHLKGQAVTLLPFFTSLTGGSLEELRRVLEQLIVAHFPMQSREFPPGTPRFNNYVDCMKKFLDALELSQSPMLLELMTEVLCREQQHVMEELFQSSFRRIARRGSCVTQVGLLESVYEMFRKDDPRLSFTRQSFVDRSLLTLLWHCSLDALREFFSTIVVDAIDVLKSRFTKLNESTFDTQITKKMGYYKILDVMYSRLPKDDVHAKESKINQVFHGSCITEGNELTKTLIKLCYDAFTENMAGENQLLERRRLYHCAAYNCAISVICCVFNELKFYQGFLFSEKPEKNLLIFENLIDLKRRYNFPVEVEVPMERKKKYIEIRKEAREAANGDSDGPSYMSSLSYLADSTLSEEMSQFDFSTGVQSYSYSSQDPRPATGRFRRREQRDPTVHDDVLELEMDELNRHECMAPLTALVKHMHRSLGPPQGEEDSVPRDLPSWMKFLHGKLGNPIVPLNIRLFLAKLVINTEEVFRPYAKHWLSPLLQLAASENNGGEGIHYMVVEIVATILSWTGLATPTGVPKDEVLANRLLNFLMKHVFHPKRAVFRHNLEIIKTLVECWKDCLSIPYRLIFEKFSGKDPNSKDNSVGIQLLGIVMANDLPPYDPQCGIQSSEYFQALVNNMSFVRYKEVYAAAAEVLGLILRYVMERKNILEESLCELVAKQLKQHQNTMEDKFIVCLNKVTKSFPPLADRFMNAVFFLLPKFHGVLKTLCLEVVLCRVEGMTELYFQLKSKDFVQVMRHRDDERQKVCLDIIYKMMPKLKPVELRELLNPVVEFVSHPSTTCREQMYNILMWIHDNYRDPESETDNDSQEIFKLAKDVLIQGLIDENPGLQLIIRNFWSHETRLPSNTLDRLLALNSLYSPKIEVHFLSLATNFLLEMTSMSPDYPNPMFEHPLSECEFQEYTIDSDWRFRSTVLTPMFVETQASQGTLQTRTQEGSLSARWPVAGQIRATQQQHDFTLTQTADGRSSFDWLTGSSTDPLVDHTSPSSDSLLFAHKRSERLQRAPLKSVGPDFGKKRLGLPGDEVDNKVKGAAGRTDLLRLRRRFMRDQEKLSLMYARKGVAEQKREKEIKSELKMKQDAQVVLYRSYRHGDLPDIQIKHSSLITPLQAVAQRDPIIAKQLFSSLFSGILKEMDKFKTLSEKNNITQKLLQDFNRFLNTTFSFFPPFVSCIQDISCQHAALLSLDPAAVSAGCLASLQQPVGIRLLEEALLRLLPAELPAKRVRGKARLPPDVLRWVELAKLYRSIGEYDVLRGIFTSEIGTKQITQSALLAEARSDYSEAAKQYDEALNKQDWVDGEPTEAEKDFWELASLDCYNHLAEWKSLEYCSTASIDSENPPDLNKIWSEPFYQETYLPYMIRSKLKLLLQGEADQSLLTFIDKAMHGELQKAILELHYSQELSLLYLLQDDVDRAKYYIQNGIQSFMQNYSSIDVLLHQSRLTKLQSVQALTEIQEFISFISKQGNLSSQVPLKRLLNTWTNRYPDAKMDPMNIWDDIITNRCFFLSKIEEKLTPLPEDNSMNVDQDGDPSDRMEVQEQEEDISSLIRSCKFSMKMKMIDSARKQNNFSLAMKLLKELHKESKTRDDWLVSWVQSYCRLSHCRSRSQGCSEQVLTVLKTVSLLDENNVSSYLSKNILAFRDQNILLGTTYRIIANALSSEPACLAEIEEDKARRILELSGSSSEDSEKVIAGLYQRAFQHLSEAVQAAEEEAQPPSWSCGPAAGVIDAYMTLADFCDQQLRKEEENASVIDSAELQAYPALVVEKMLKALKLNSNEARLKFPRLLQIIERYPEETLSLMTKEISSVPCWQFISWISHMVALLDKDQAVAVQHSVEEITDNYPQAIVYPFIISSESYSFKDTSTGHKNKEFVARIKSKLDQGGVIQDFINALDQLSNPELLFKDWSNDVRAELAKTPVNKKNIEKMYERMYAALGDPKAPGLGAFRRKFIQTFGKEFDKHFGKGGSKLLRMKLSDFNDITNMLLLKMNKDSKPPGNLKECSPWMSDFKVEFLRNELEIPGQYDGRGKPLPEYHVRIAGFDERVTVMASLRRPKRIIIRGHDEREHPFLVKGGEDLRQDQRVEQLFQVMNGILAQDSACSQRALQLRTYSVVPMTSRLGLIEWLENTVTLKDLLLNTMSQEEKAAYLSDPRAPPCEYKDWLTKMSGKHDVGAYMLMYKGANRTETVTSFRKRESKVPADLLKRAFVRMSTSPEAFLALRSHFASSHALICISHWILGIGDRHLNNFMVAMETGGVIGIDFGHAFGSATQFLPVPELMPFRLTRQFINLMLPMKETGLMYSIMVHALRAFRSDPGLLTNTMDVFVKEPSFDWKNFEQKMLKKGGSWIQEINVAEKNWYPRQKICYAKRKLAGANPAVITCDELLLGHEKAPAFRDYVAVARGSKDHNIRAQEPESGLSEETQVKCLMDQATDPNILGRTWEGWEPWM

Binder	binding result [1]	binding result [2]
B1	binds	
B2		binds
